B1: Cellulose synthase A catalytic subunit 7 [UDP-forming] (Arabidopsis thaliana (Mouse-ear cress)), Q9SWW6 (parent)
chain: MEASAGLVAGSHNRNELVVIHNHEEPKPLKNLDGQFCEICGDQIGLTVEGDLFVACNECGFPACRPCYEYERREGTQNCPQCKTRYKRLRGSPRVEGDEDEEDIDDIEYEFNIEHEQDKHKHSAEAMLYGKMSYGRGPEDDENGRFPPVIAGGHSGEFPVGGGYGNGEHGLHKRVHPYPSSEAGSEGGWRERMDDWKLQHGNLGPEPDDDPEMGLIDEARQPLSRKVPIASSKINPYRMVIVARLVILAVFLRYRLLNPVHDALGLWLTSVICEIWFAVSWILDQFPKWFPIERETYLDRLSLRYEREGEPNMLAPVDVFVSTVDPLKEPPLVTSNTVLSILAMDYPVEKISCYVSDDGASMLTFESLSETAEFARKWVPFCKKFSIEPRAPEMYFTLKVDYLQDKVHPTFVKERRAMKREYEEFKVRINAQVAKASKVPLEGWIMQDGTPWPGNNTKDHPGMIQVFLGHSGGFDVEGHELPRLVYVSREKRPGFQHHKKAGAMNALVRVAGVLTNAPFMLNLDCDHYVNNSKAVREAMCFLMDPQIGKKVCYVQFPQRFDGIDTNDRYANRNTVFFDINMKGLDGIQGPVYVGTGCVFKRQALYGYEPPKGPKRPKMISCGCCPCFGRRRKNKKFSKNDMNGDVAALGGAEGDKEHLMSEMNFEKTFGQSSIFVTSTLMEEGGVPPSSSPAVLLKEAIHVISCGYEDKTEWGTELGWIYGSITEDILTGFKMHCRGWRSIYCMPKRPAFKGSAPINLSDRLNQVLRWALGSVEIFFSRHSPLWYGYKGGKLKWLERFAYANTTIYPFTSIPLLAYCILPAICLLTDKFIMPPISTFASLFFISLFMSIIVTGILELRWSGVSIEEWWRNEQFWVIGGISAHLFAVVQGLLKILAGIDTNFTVTSKATDDDDFGELYAFKWTTLLIPPTTVLIINIVGVVAGISDAINNGYQSWGPLFGKLFFSFWVIVHLYPFLKGLMGRQNRTPTIVVIWSVLLASIFSLLWVRIDPFVLKTKGPDTSKCGINC
partner: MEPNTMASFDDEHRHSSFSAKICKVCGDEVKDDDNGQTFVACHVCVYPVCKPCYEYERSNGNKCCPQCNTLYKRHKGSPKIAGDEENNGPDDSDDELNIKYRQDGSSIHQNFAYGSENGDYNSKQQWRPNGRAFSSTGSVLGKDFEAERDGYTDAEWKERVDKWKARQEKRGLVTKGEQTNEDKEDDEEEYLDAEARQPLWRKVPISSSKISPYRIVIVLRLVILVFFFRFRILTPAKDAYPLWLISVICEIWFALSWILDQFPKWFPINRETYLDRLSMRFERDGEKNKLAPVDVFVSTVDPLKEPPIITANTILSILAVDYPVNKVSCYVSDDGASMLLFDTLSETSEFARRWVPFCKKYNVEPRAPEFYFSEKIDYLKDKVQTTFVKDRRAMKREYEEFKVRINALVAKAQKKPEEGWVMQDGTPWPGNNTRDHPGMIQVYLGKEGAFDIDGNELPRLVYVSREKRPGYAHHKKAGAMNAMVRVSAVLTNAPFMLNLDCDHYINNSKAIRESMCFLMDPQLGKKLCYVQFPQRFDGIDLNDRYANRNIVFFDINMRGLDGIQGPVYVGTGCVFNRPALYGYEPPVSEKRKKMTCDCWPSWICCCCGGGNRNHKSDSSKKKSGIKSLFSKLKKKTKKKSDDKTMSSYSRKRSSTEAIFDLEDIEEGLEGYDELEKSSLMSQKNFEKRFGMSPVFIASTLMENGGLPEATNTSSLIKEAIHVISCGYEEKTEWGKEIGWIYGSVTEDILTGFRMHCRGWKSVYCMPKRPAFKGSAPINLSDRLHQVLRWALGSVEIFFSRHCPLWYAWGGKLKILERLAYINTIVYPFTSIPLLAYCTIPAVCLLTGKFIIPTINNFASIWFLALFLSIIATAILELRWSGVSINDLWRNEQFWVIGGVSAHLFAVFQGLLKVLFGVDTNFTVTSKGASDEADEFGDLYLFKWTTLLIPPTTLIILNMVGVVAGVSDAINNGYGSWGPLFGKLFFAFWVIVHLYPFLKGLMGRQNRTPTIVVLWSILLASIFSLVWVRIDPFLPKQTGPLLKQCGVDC
B2: Cellulose synthase A catalytic subunit 7 [UDP-forming] (Arabidopsis thaliana (Mouse-ear cress)), Q9SWW6 (parent)
chain: B1 chain
partner: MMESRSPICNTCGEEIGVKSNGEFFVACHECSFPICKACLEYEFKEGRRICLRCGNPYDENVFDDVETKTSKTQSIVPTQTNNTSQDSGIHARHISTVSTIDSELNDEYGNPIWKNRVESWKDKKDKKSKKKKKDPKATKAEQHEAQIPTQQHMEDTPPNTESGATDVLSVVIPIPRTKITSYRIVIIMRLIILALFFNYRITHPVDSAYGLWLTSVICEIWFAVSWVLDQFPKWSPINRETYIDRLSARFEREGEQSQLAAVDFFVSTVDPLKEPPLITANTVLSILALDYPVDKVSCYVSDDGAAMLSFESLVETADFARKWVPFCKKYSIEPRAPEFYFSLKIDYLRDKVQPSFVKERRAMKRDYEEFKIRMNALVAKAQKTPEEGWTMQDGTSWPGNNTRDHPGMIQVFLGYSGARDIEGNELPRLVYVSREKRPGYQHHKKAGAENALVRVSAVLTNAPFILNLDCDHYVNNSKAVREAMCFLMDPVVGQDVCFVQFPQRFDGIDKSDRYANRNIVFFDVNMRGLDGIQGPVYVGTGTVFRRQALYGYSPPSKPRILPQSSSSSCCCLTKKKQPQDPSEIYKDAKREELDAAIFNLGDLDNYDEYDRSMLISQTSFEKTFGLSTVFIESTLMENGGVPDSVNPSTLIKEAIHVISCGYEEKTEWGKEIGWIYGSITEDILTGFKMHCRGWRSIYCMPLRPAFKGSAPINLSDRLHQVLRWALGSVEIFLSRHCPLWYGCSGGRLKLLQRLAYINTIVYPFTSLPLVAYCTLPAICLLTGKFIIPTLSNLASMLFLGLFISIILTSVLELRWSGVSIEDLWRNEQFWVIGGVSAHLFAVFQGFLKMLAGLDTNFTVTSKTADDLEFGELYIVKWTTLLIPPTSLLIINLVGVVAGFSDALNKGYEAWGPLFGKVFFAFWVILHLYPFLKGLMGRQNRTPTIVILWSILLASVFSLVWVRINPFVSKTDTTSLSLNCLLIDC

Variants of: B1
Details: with cesa4_arath CESA4, Q84JA6

| Variant | effect of a mutation on the interaction |
| --- | --- |
| C79A | decreasing interaction |

Variants of: B1
Details: with cesa4_arath CESA4, Q84JA6
Remark: another data set of the same source

| Variant | effect of a mutation on the interaction |
| --- | --- |
| C37A | decreasing interaction |

Variants of: B1
Details: with cesa4_arath CESA4, Q84JA6
Remark: another data set of the same source

| Variant | effect of a mutation on the interaction |
| --- | --- |
| C64A | decreasing interaction |

Variants of: B2
Details: with cesa8_arath CESA8, Q8LPK5

| Variant | effect of a mutation on the interaction |
| --- | --- |
| C79A | decreasing interaction |

Variants of: B2
Details: with cesa8_arath CESA8, Q8LPK5
Remark: another data set of the same source

| Variant | effect of a mutation on the interaction |
| --- | --- |
| C37A | decreasing interaction |

Variants of: B2
Details: with cesa8_arath CESA8, Q8LPK5
Remark: another data set of the same source

| Variant | effect of a mutation on the interaction |
| --- | --- |
| C56A | decreasing interaction |

Variants of: B2
Details: with cesa8_arath CESA8, Q8LPK5
Remark: another data set of the same source

| Variant | effect of a mutation on the interaction |
| --- | --- |
| C64A | decreasing interaction |

From IntAct's records for PubMed 19258017
